Source: US20240150411A1

Columns and labels:
[1] = target: DS-Cav1-foldon-I53-50A trimer (respiratory syncytial virus (RSV)); assay: SPR, D25 immobilised, antigen at 50 nM heat-stressed at 70 °C for 1 h (FIG. 10)
[2] = target: DS-Cav1-foldon-I53-50 nanostructure, 100% valency (respiratory syncytial virus (RSV)); assay: as above

D25 monoclonal antibody gave a percent of binding signal retained after 70 °C for 1 hour [1] of 50% and a percent of binding signal retained after 70 °C for 1 hour [2] of 80%.
